In patent publication US20170242041:

Key:
[1] = tested on: recombinant human GFAP with C-terminal tag (DDK)
Chain of recombinant human GFAP with C-terminal tag (DDK) (chain, as listed by the source): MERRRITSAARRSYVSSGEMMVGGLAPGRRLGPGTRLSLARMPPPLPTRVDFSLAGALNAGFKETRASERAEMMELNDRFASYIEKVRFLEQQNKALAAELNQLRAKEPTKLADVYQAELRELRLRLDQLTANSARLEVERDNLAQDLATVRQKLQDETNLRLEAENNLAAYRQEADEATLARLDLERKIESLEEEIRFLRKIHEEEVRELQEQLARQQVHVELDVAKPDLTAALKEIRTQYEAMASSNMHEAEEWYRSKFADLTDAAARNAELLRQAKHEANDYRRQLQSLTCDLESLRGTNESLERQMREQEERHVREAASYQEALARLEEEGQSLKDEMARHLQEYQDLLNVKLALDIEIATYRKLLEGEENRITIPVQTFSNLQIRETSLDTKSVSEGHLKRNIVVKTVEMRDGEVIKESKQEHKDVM

Chain of rat Tau (intact protein) (chain, as listed by the source): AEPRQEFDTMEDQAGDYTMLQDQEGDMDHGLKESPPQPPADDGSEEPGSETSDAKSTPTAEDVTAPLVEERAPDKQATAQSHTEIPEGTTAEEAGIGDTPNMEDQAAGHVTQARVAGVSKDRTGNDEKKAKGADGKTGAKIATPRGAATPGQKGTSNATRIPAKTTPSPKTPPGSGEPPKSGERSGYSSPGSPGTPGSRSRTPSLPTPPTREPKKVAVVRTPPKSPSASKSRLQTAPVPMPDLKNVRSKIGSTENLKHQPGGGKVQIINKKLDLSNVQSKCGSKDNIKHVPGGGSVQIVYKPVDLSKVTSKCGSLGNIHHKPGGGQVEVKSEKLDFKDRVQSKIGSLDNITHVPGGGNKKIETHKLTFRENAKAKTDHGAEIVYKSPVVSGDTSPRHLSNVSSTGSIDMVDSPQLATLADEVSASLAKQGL
Chain of calpain-2 (P17655 20-700): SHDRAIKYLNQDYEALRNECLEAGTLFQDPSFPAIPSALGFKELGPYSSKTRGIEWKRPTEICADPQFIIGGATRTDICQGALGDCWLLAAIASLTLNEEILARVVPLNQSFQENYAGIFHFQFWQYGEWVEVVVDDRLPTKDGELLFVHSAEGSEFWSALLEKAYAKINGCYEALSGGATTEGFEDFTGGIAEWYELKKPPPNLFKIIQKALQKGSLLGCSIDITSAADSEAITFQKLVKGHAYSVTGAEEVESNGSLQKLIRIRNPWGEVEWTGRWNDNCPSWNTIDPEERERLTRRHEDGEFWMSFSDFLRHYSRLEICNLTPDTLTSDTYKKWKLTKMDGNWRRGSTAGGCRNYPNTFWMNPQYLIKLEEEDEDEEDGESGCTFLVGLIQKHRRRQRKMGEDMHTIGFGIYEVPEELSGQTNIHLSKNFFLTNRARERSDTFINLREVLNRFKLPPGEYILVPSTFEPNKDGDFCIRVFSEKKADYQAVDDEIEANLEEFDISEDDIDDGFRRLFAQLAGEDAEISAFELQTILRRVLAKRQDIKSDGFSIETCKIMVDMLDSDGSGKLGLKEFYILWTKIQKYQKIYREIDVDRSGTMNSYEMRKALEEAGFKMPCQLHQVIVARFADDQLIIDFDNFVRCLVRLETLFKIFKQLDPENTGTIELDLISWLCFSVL
Chain of calpain-1 (P07384 2-714): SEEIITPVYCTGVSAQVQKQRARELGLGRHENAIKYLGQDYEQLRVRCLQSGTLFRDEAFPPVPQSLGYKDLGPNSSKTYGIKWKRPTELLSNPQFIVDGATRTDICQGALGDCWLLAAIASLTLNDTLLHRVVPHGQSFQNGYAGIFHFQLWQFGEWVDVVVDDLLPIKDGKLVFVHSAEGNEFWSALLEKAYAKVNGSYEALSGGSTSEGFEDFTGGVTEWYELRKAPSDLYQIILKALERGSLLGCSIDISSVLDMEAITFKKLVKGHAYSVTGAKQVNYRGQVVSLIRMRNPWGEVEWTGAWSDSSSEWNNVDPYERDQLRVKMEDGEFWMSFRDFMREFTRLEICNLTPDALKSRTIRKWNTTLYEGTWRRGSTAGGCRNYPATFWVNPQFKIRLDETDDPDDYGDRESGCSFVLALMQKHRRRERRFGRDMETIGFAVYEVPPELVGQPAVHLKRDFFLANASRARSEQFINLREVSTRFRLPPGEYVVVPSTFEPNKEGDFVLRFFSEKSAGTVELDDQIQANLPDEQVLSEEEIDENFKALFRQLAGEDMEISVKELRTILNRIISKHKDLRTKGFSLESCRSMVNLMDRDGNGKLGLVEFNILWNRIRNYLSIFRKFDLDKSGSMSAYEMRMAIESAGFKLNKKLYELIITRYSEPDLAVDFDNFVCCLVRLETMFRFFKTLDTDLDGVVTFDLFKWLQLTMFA

In the case of calpain-1, the “proteolytic digestion, western blot of fragments” value (rat Tau (intact protein)) was “Both calpain-1 and -2 digest tau into several immunoreactive fragments (42 kDa, 35 kDa and 15 kDa)”.
caspase-3 was tested, and the “proteolytic cleavage; N-terminal sequencing of fragments” value (rat Tau (intact protein)) was “Caspase-3 cleaves rat Tau at Asp412 (SSTGSIDMVD*412SPQLATLA (SEQ ID NO: 10))”, the “proteolytic digestion, western blot of fragments” value (rat Tau (intact protein)) was “caspase-3 digestion only produces limited fragment doublet of 48 kDa/45/kDa” and the “proteolytic cleavage (Coomassie, anti-DDK and anti-GFAP western blot)” value [1] was “illustrates successful cleavage by both calpain and caspase”. For the same substance, the proteolytic cleavage sites (human Tau) was “Caspase cleavage sites in human Tau are Asp25 (GDRKD*25QGGYTMHQD (SEQ ID NO: 17)) ... and Asp421 (SSTGSIDMVD*421SPQLATLA (SEQ ID NO: 18))” and the “proteolytic digestion, western blot with anti-total tau antibody” value (human Tau) was “Treatment of human tau with calpain or caspase produce numerous breakdown products”.
For calpain-2, the “proteolytic digestion, western blot of fragments” value (rat Tau (intact protein)) was “Both calpain-1 and -2 digest tau into several immunoreactive fragments (42 kDa, 35 kDa and 15 kDa)”, the “proteolytic cleavage; N-terminal sequencing of excised GBDP bands” value [1] was “cleavage by calpain 2 at Asn59 (GALN*59AGFKETRASERAE) ... and Thr383 (TIPVQT*383FSNLQIRET) ... overall producing multiple GBDPs between 49 and 38 kDa in recombinant human GFAP” and the “proteolytic digestion, western blot with anti-total tau antibody” value (human Tau) was “Treatment of human tau with calpain or caspase produce numerous breakdown products”.
With calpain (calpain 2 or calpain 1) the “proteolytic cleavage; N-terminal sequencing of fragments” value (rat Tau (intact protein)) was “Calpain cleaves rat tau at Lys43 ... Ser120 ... Val220 ... and Arg370” and the proteolytic cleavage sites (human Tau) was “Human TBDPs are produced from Human Tau by calpain cleavage at Ser129 ... Val229 ... Gly157 ... Lys44 ... and Arg379”.
